Test results published in patent US20250129146A1, “COMBINED CANCER THERAPY WITH AN EPITHELIAL CELL ADHESION MOLECULE (EPCAM) INHIBITOR AND A WNT INHIBITOR” (ACADEMIA SINICA, priority 2021, published 2025).
“Also recorded” adds a separate entry of the source.

Experiments:
active β-Catenin = experiment: Nuclear translocation of β-Catenin (immunofluorescence staining; cell fractionation with western blot); format: cell-based, human
Procedure: Cells (1×10^6) were seeded overnight and further allowed to grow in serum free conditions. Then cells were further treated with 20 μg/mL mEpAb2-6 or hEpAb2-6 or MT201 for 6 h or with 400 ng/mL LGK974 (MedChemExpress) for 9 h or combination as indicated. Samples were fractioned into cytosol and nuclear extracts using nuclear/cytosol fractionation kit (Biovision) according to the manufacturer's protocol. The fractions were then subjected to western blot analysis.
(§1) For western blotting, cells were extracted using radioimmunoprecipitation assay (RIPA) buffer [(0.01 M sodium phosphate, pH 7.2), 150 mM NaCl, 2 mM EDTA, 50 mM NaF, 1% Nonidet P-40, 1% sodium deoxycholate, and 0.1% SDS)] containing phosphatase inhibitor (Roche) and protease inhibitor (Roche) cocktail. Equal amounts of protein were separated by SDS-PAGE and then transferred to PVDF membranes. The membranes were blocked with 3% BSA in TBST (Blocking solution) and incubated with necessary primary antibodies in the blocking solution overnight at 4° C. Membranes were then incubated with HRP-conjugated secondary antibodies in the blocking solution for 1 h at room temperature, and protein expression were detected. Antibodies used: anti-α-tubulin (Sigma), anti-EpCAM (abeam), anti-Active β-Catenin (Millipore), anti-total β-Catenin (abeam), anti-Frizzled 6 (CST), anti-Frizzled 7 (Santa Cruz Biotech), anti-LRP5 (abcam), anti-Phospho-LRP5 (abcam), anti-Phospho-LRP6 (CST), anti-LRP6 (CST) and anti-EpEX antibody EpAb3-5 (Produced in house), anti-ADAM17 (abcam), anti-phopho-ADAM17 (abcam), anti-Presenilin2 (abcam), anti-phospho-Presenilin2 (S327) (abcam), anti-phospho-Presenilin2 (S330) (abcam) and anti-Axin2 (CST).
Glass slides were used in 24-well plates and coated with 0.1% gelatin. Further, 3×10^4 cells were seeded in serum free medium overnight. Cells were treated with 20 μg/mL EpAb2-6 for 6 h, or 400 ng/mL LGK974 (MedChemExpress) for 9 h or the combination. Cells were washed using ice-cold PBS and fixed with 4% paraformaldehyde for 15 min at RT and washed with ice-cold PBS. Further, cells were permeabilized using 0.1% triton-X in PBS for 20 min and subsequently washed with PBS. Cells were blocked with 3% BSA in PBS for 1 h at RT. Next, cells were treated with primary antibody anti-Active β-Catenin (Millipore) overnight. Then, cells were washed and treated with secondary antibody in 3% BSA containing PBS along with DAPI for 1 h at RT. Samples were then washed in PBS five times and mounted for microscopy. Nuclear β-Catenin intensities were calculated using IMARIS (Oxford Instruments) software.

[1] = tested on: Wnt receptors (FZD6/7, LRP5/6); experiment: Wnt receptor protein and mRNA expression (western blot, qPCR); format: cell-based, human; details: HT29 and HCT116 cells; overnight DAPT treatment
Procedure: as §1
Total RNA was extracted using TRI reagent and 5 μg of the total RNA was further reverse-transcribed using oligo (dT) primer with reverse transcriptase. Quantitative real time RT-PCR (qPCR) was performed on cDNA using the Light Cycler 480 SYBR Green-I Master kit and the LightCycler480 System. The gene expression levels of each sample were normalized to the expression levels of glyceraldehyde 3-phosphate dehydrogenase (GAPDH) or β-actin.

[2] = tested on: Wnt receptor promoters (LRP5, LRP6, FZD6, FZD7); experiment: Wnt receptor promoter luciferase reporter assay; format: cell-based, human; details: cells transfected with EpCAM plasmid; overnight DAPT treatment
Procedure: (§2) The cells were seeded in 24-well plates (1×10^4 cells/well) and incubated at 37° C. for 24 h. The culture media were refreshed, and the cells were transfected with respective reporter plasmids (TCF reporter or Wnt receptor promoter reporter) by PolyJET (SignaGen). The transfected efficiency was normalized by co-transfected with pRL-TK (20 ng) as an internal control. Additional treatments were conducted as indicated. Firefly luciferase and Renilla luminescence were measured 48 h post-transfection using the Dual-Glo Luciferase Assay System (Promega), according to the manufacturer's recommendations.
The putative promoter regions of LRP5 (−1187 to +200), LRP6 (−1543 to +55), FZD6 (−1385 to +205) and FZD7 (−1285 to +116) were cloned from HeLa genomic DNA and fused to pGL4.18 plasmid (Promega, USA). The genomic DNA was extracted using a Genomic DNA Isolation Kit (NovelGene, TW) according to the manufacturer's recommendations.

TCF = TCF activity (TOP-Flash TCF luciferase reporter); format: cell-based, human
Procedure: Cells were plated at 5×10^3 cells per well and grown overnight in 12-well plates. Then, cells were transiently transfected with TOP-Flash TCF reporter plasmid (Millipore) using poly-jet transfection reagent (SignaGen). At 48 h post transfection, cells were treated with 20 µg/mL Anti-EpCAM EpAb2-6 (Produced in house) or MT201 (Produced in house) for 6 h or 400 ng/mL LGK974 (MedChemExpress) for 9 h or the combination, as indicated. In addition, cells were treated with EpEX (Produced in house by Expi293 Expression System) or recombinant Wnt3A (R & D systems) or the combination for 8 h. Finally, cells were lysed, and the luciferase assay was performed.
as §2

[3] = tested on: HCT116, HT29 and SW620 cells; experiment: Tumorsphere assay; format: cell-based, human; details: summary statement; CRC cells; tumorsphere and colony formation
Procedure: Cells were seeded in ultra-low adherent 6-well plates (5×10^4 cells per well) or 24-well plates (1×10^3 cells per well) and maintained in DMEM/F-12 supplemented with B27. Further, cells were treated with 20 μg/mL mEpAb2-6, hEpAb2-6 or MT201 (Produced in house), or 400 ng/mL LGK974 (MedChemExpress) or the combination, by direct addition to the culture medium. The entire culture medium, including the treatment component, was changed in every other day. Cells were cultured for 10 days, and on 10th day, spheres were counted and photographed under the microscope.

[4] = tested on: colon cancer cells (SW620, HCT116); experiment: Annexin-V/PI apoptosis assay; format: cell-based, human; details: HCT116 cells; 20 μg/mL hEpAb2-6, mEpAb2-6 or MT201 for 24 hrs
Procedure: Cells were seeded in 24-well plate ([…] cells per well) overnight and then treated with 20 μg/mL mEpAb2-6, hEpAb2-6 or MT201, or […] LGK974 (MedChemExpress) or the combination for 24 hrs. Cell pellets were collected, and an apoptosis assay was performed using an Annexin-V/PI apoptosis kit (BD Biosciences). Results were read by flow cytometry analysis percentage apoptotic cells was calculated.

EpCAM = biological target: T1, EpCAM (Homo sapiens, UniProt P16422); details: general description of other anti-EpCAM antibodies; cited from earlier work
T1 construct: HEK293T cells were transfected with full length or EGF like-domain deletion mutant EpCAM-V5; V5; expressed in transfected cells; host or cells: HEK293T
T1 sequence (P16422 24-314): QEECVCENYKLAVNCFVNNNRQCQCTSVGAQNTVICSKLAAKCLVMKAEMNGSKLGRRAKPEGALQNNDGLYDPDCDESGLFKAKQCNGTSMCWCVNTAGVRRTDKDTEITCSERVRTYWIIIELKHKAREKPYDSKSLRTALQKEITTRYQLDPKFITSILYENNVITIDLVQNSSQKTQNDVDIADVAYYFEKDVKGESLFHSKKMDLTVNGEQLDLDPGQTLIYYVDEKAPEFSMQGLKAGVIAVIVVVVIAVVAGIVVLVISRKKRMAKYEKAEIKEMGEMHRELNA

[5] = tested on: colon cancer cells (SW620, HCT116); details: general description of other anti-EpCAM antibodies; cited from earlier work
[6] = wild-type HCT116 cells, DAPT with or without EpEX

C[C@H](NC(=O)Cc1cc(F)cc(F)c1)C(=O)N[C@H](C(=O)OC(C)(C)C)c1ccccc1 [DAPT, reference compound]
nuclear translocation of β-Catenin (active β-Catenin; [6]): decreased nuclear translocation of β-Catenin | expression of Wnt receptors [1]: reduced expression of Wnt receptors | Wnt receptor promoter activity [2]: almost completely blocked the effect | TCF activity (TCF; [6]): marginally decreased TCF activity

B1: hEpAb2-6: humanized form of EpAb2-6 (antibody, V domains shown)
VH: VKLQESGPELKKPGETVKISCKASGYTFTDYSMHWVKQAPGKGLKWMGWINTETGEPTYADDFKGRFAFSLETSASTAYLQINNLKNEDTATYFCARTAVYWGQGTTVTVSS
VL: DIQMTQSPSSLSASLGERVSLTCRASQEISVSLSWLQQEPDGTIKRLIYATSTLDSGVPKRFSGSRSGSDYSLTISSLESEDFVDYYCLQYASYPWTFGGGTKLEIKRADAAPTVS
nuclear translocation of β-Catenin (active β-Catenin; HT29 cells, 20 μg/mL hEpAb2-6 or MT201 for 6 h): retained β-Catenin inhibitory activity; also recorded: attenuates nuclear translocation of β-Catenin | cancer stemness properties [3]: limits cancer stemness | induction of apoptosis [4]: induces apoptosis | TCF activity (TCF; HT29 cells, 20 µg/mL antibody for 6 h): retained β-Catenin inhibitory activity thus related TCF activity

B2: edrecolomab: other anti-EpCAM antibody targeting only the EGF I domain (antibody, chains of the INN, looked up, V domains shown)
VH: QVQLQQSGAELVRPGTSVKVSCKASGYAFTNYLIEWVKQRPGQGLEWIGVINPGSGGTNYNEKFKGKATLTADKSSSTAYMQLSSLTSDDSAVYFCARDGPWFAYWGQGTLVTVSA
VL: NIVMTQSPKSMSMSVGERVTLTCKASENVVTYVSWYQQKPEQSPKLLIYGASNRYTGVPDRFTGSGSATDFTLTISSVQAEDLADYHCGQGYSYPYTFGGGTKLEIK
EpCAM domains bound (EpCAM): target only the well-described EGF I domain of EpCAM; also recorded: binding to domain I only | inducing apoptosis of cancer cells [5]: failing
